The results in this text go back to publication PMC3518268 (Science (New York, N.Y.), 2009).

First the molecules themselves.
B1: full length MO25α (natural protein, human, UniProt Q9Y376 1-341, looked up)
chain: MPFPFGKSHKSPADIVKNLKESMAVLEKQDISDKKAEKATEEVSKNLVAMKEILYGTNEKEPQTEAVAQLAQELYNSGLLSTLVADLQLIDFEGKKDVAQIFNNILRRQIGTRTPTVEYICTQQNILFMLLKGYESPEIALNCGIMLRECIRHEPLAKIILWSEQFYDFFRYVEMSTFDIASDAFATFKDLLTRHKLLSAEFLEQHYDRFFSEYEKLLHSENYVTKRQSLKLLGELLLDRHNFTIMTKYISKPENLKLMMNLLRDKSRNIQFEAFHVFKVFVANPNKTQPILDILLKNQAKLIEFLSKFQNDRTEDEQFNDEKTYLVKQIRDLKRPAQQEA
B2: LKB1 kinase domain (residues 43-347), catalytically inactive mutant Asp194Ala (domain or fragment, human, UniProt Q15831 43-347, looked up)
chain: AKLIGKYLMGDLLGEGSYGKVKEVLDSETLCRRAVKILKKKKLRRIPNGEANVKKEIQLLRRLRHKNVIQLVDVLYNEEKQKMYMVMEYCVCGMQEMLDSVPEKRFPVCQAHGYFCQLIDGLEYLHSQGIVHKDIKPGNLLLTTGGTLKISALGVAEALHPFAADDTCRTSQGSPAFQPPEIANGLDTFSGFKVDIWSAGVTLYNITTGLYPFEGDNIYKLFENIGKGSYAIPGDCGPPLSDLLKGMLEYEPAKRFSIRQIRQHSWFRKKHPPAEAPVPIPPSPDTKDRWRSMTVVPYLEDLHGA

Experiment [1] has as its target T1, pseudokinase domain of STRADα (residues 59-431) (human, UniProt Q7RTN6 59-431).
T1 sequence (looked up): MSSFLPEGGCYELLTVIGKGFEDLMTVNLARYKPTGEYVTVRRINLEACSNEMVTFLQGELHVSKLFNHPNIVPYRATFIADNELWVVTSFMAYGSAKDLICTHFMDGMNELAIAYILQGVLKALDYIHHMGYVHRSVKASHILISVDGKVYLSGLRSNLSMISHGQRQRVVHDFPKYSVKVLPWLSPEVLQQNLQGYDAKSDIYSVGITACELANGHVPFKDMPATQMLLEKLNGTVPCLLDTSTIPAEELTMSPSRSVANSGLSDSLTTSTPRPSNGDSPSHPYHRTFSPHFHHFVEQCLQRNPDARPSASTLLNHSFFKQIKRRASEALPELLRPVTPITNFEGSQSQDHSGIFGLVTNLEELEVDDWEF
As to the kind of experiment: crystal structure.

The experiment “full length MO25α” has as its target B1. Description: crystal structure.

B1: in experiment [1], the binding result is recorded as “binds”. Turning to B2, the binding result (in the experiment with full length MO25α; in experiment [1]) was “binds” throughout.
